{
  "source": "FireProtDB (doi:10.1006/jmbi.2000.3776)",
  "proteins": {"B1": {"name": "Major outer membrane lipoprotein Lpp wild type, P69776 (protein)", "chain": "MKATKLVLGAVILGSTLLAGCSSNAKIDQLSSDVQTLNAKVDQLSNDVNAMRSDVQAAKDDAARANQRLDNMATKYRK"}},
  "details": "Escherichia coli (strain K12); pH 7; 4 °C; GdnHCl; CD; PBS; whole UniProt chain shown",
  "data": [
    {"protein": "B1", "values": [
      {"measurement": "unfolding free energy", "value": 18.8, "unit": "kcal/mol"}
    ]}
  ]
}
